Test results: patent US8877192B2, “Rage fusion proteins and methods of use” (TransTech Pharma, LLC, priority 2004, dated 2014)

Key:
[1] = tested on: S100b/RAGE-induced production of TNF-α in THP-1 cells; test: S100b/RAGE-induced production of TNF-α in THP-1 cells; format: cell-based; conditions: FIG. 10
Experimental: THP-1 myeloid cells may be cultured in RPMI-1640 media supplemented with 10% FBS and induced to secrete TNF-α via stimulation of RAGE with S100b. When such stimulation occurs in the presence of a RAGE fusion protein, induction of TNF-α by S100b binding to RAGE may be inhibited.
Previous work has shown that the myeloid THP-1 cells may secrete TNF-α in response to RAGE ligands. In this assay, THP-1 cells were cultured in RPMI-1640 media supplemented with 10% FBS using a protocol provided by ATCC. […] The amount of TNF-α secreted by the THP-1 cells was measured 24 hours after the addition of the proteins to the cell culture using a commercially available ELISA kit for TNF-α (R&D Systems, Minneapolis, Minn.).

[2] = Pharmacokinetic profile of TTP-4000 after IV injection, plasma ELISA; format: in vivo, monkeys; conditions: single IV bolus 5 mg/kg, 2 animals, FIG. 11
Experimental: Following collection, the tubes were placed on wet ice (maximum 30 minutes) until centrifugation under refrigeration (at 2 to 8° C.) at 1500×g for 15 minutes. Each harvested plasma sample was then stored frozen (−70° C.±10° C.) until assayed for RAGE polypeptide using an ELISA at various time-points following the injection, as described in Example 6.
Initially, 50 uL of the RAGE specific monoclonal antibody 1HB1011 at a concentration of 10 ug/mL in 1×PBS pH 7.3 is coated on plates via overnight incubation. When ready for use, plates are washed three times with 300 uL of 1× Imidazole-Tween wash buffer and blocked with 1% BSA. […] The samples are allowed to incubate at room temperature for one hour. After incubation, the plates are plates are washed three times. A Goat Anti-human IgG1 1 (Sigma A3312) AP conjugate in 1×PBS with 1% BSA is added and allowed to incubate at room temperature for 1 hour. The plates are washed three times. Color was elucidated with paranitrophenylphosphate.

[3] = tested on: diabetic rat model of restenosis; test: Diabetic rat model of restenosis (balloon injury of left common carotid artery); format: in vivo, Zucker diabetic rats; conditions: 4 days after injury; dose-responsive; FIG. 13B
Experimental: In these experiments, balloon injury of left common carotid artery was performed in Zucker diabetic and nondiabetic rats using standard procedure. […] A maintenance dose was delivered every other day until day 7 after injury (i.e., at day 1, 3, 5 and 7 after injury). The maintenance dose was high=1 mg/animal for one group, or low=0.3 mg/animal for the second group. To measure vascular smooth muscle cell (VSMC) proliferation, animals were sacrificed at 4 days and 21 days after injury. For the measurement of cell proliferation, 4 day animals received intraperitoneal injection of bromodeoxyuridine (BrDdU) 50 mg/kg at 18, 12, and 2 hours before euthanasia. After sacrifice, the entire left and right carotid arteries were harvested. Specimens were stored in Histochoice for at least 24 hours before embedding. […] A fluorescence labeled goat anti-mouse secondary antibody was applied. The number of BrdU-positive nuclei per section were counted by two observers blinded to the treatment regimens.
The remaining rats were sacrificed at 21 days for morphometric analysis. Morphometric analyses were performed by an observer blinded to the study groups, using computerized digital microscopic planimetry software Image-Pro Plus on serial sections, ([…]) carotid arteries stained by Van Gieson staining All data were expressed as mean±SD. […]

[4] = tested on: transgenic mice expressing the human Swedish mutant amyloid precursor protein (APP); test: Mouse model of AD (APP transgenic mice); format: in vivo
Experimental: Experiments were performed to evaluate whether TTP-4000 could affect amyloid formation and cognitive dysfunction in a mouse model of AD. The experiments utilized transgenic mice expressing the human Swedish mutant amyloid precursor protein (APP) under the control of the PDGF-B chain promoter. Over time, these mice generate high levels of the RAGE ligand, amyloid beta (Aβ).
The APP mice (male) used in this experiment were designed by microinjection of the human APP gene (with the Swedish and London mutations) into mouse eggs under the control of the platelet-derived growth factor B (PDGF-B) chain gene promoter. The mice were generated on a C57BL/6 background and were developed by Molecular Therapeutics Inc. Animals were fed ad libitum and maintained by brother sister mating. The mice generated from this construct develop amyloid deposits starting at 6 months of age. Animals were aged for 6 months and then maintained for 90 days and sacrificed for amyloid quantification.
APP transgenic mice were administered vehicle or TTP4000 every other day [qod (i.p.)] for 90 days starting at 6 months of age. At the end of the experiment, animals were sacrificed and examined for Aβ plaque burden in the brain (i.e., plaque number). A 6-month control APP group was used to determine the baseline of amyloid deposits. In addition, at the end of the study, the animals were subjected to behavioral (Morris water maze) analysis. The investigators were blinded to the study compounds. Samples were given to the mice at 0.25 ml/mouse/every other day.
For histological examination, the animals were anesthetized with an intraperitoneal injection (IP) of sodium pentobarbital (50 mg/kg). The animals were transcardially perfused with 4° C., phosphate-buffered saline (PBS) followed by 4% paraformaldehyde. The brains were removed and placed in 4% paraformaldehyde over night. The brains were processed to paraffin and embedded. Ten serial 30-μm thick sections through the brain were obtained. Sections were subjected to primary antibody overnight at 4° C. (Aβ peptide antibody) in order to detect the amyloid deposits in the brain of the transgenic animals (Guo et al., J. Neurosci., 22:5900-5909 (2002)). Sections were washed in Tris-buffered saline (TBS) and secondary antibody was added and incubated for 1 hour at room temperature. After washing, the sections were incubated as instructed in the Vector ABC Elite kit (Vector Laboratories) and stained with […] (DAB). The reactions were stopped in water and cover-slipped after treatment with xylene. The amyloid area in each section was determined with a computer-assisted image analysis system, consisting of a Power Macintosh computer equipped with a Quick Capture frame grabber card, Hitachi CCD camera mounted on an Olympus microscope and camera stand. NIH Image Analysis Software, v. 1.55 was used. The images were captured and the total area of amyloid was determined over the ten sections. A single operator blinded to treatment status performed all measurements. Summing the amyloid volumes of the sections and dividing by the total number of sections was done to calculate the amyloid volume.
For quantitative analysis, an enzyme-linked immunosorbent assay (ELISA) was used to measure the levels of human total Aβ, Aβtotal and Aβ1-42 in the brains of APP transgenic mice (Biosource International, Camarillo, Calif.). Aβtotal and Aβ1-42 were extracted from mouse brains by guanidine hydrochloride and quantified as described by the manufacturer. […]

B1: TTP-4000: four domain RAGE fusion protein (SEQ ID NO: 32): human RAGE amino acids 1-251 linked to CH2 and CH3 domains of human IgG (protein)
chain: MAAGTAVGAWALVLSLWGAVVGAQNITARIGEPLVLKCKGAPKKPPQRLEWKLNTGRTEAWKVLSPQGGGPWDSVARVLPNGSLFLPAVGIQDEGIFRCQAMNRNGKETKSNYRVRVYQIPGKPEIVDSASELTAGVPNKVGTCVSEGSYPAGTLSWHLDGKPLVPNEKGVSVKEQTRRHPETGLFTLQSELMVTPARGGDPRPTFSCSFSPGLPRHRALRTAPIQPRVWEPVPLEEVQLVVEPEGGAVAPPSVFLFPPKPKDTLMISRTPEVTCVVVDVSHEDPEVKFNWYVDGVEVHNAKTKPREEQYNSTYRVVSVLTVLHQDWLNGKEYKCKVSNKALPAPIEKTISKAKGQPREPQVYTLPPSRDELTKNQVSLTCLVKGFYPSDIAVEWESNGQPENNYKTTPPVLDSDGSFFLYSKLTVDKSRWQQGNVFSCSVMHEALHNHYTQKSLSLSPGK
[1]; 10 μg protein, S100b 0.1 mg/ml FAC, 24 hours
  reduction of induction of TNF-α by S100b: ~70%
[1]; 10 μg
  blocking S100b induction of TNF-α compared with sRAGE: at least as effective in blocking S100b induction of TNF-α as is sRAGE
[2]
  terminal half-life: greater than 300 hours
[3]
  vascular smooth muscle cell proliferation (BrdU-positive nuclei): significantly reduced
[4]; data not shown
  inflammatory cytokines IL-1 and TNF-α: reduce
[4]; treated for 3 months, versus vehicle and human IgG1, FIG. 14A
  Aβ plaques in the brain: fewer Aβ plaques
[4]; treated for 3 months, versus vehicle and human IgG1, FIG. 14B
  cognitive dysfunction (Morris water maze): less cognitive dysfunction
